Values of other authors in PMC4705221.
Read-outs that look alike come from different tables or passages of the source.

Tests used:
[1] = molecular target: MK2 (Homo sapiens) (UniProt P49137)
[2] = molecular target: MK2 (Homo sapiens) (UniProt P49137); remark: listed apart in the source

Chain of UniProt P49137 (P49137 whole entry): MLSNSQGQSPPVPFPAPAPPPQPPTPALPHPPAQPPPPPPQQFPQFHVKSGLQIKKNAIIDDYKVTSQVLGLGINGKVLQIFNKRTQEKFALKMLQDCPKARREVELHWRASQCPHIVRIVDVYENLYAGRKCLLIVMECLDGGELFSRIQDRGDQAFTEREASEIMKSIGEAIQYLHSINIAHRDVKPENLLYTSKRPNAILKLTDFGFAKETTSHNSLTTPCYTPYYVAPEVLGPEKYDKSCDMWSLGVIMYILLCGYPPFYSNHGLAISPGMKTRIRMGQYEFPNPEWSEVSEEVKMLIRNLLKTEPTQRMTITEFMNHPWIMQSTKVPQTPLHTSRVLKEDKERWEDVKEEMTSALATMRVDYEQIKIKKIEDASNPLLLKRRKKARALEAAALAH

Kd [1]: 60 nM | Kd [2]: 2.5 nM
Substance: p38α (from UniProt Q16539)
